Experimental data published in doi:10.1101/2024.02.17.580827 (bioRxiv, 2024).
Positions count from the first letter of the chain named. In names and notes the source's numbering stands.

T1: FolK (purified protein) (E. coli, UniProt P26281 1-159)
T1 sequence: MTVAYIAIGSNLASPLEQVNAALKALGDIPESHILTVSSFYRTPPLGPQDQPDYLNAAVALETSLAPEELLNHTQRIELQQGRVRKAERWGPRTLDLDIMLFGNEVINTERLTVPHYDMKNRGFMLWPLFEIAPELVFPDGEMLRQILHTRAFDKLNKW

B1: WT DHFR (purified protein) (enzyme)
chain: MISLIAALAVDRVIGMENAMPWNLPADLAWFKRNTLNKPVIMGRHTWESIGRPLPGRKNIILSSQPGTDDRVTWVKSVDEAIAACGDVPEIMVIGGGRVYEQFLPKAQKLYLTHIDAEVEGDTHFPDYEPDDWESVFSEFHDADAQNSHSYCFEILERR
B2: N23V DHFR (purified protein) (enzyme)
chain: B1 chain with N23V
B3: D144N DHFR (purified protein) (enzyme)
chain: B1 chain with D144N
B4: D132H DHFR (purified protein) (enzyme)
chain: B1 chain with D132H

Biological target: T1, FolK (purified protein)
Test: Raman spectroscopy

Row | Kd [µM] | Binder
1 | 22 | B1
2 | 5.1 | B2
3 | 10 | B3
4 | 8.1 | B4
